Reference: patent US20120171123A1, “USES AND COMPOSITIONS FOR TREATMENT OF RHEUMATOID ARTHRITIS” (priority 2006, published 2012)
Like-named read-outs stand apart in the source and are kept apart here. Marks after values point to notes of the source that are not given here.

How the values were obtained:
[1] = test system: MTX-naïve adult patients with early RA (<3 years); experiment: Study J: FACIT-F fatigue; format: in vivo, human; details: for FACIT-F mean change from baseline: LOCF
Source text: The Health Assessment Questionnaire Disability Index (HAQ DI) is a disease-specific tool that measures patient-reported physical function in 8 categories corresponding to normal activities in daily living. Fatigue is an important yet still often overlooked systemic symptom of RA. The Functional Assessment of Chronic Illness Therapy-Fatigue (FACIT-F) tool, measured by a 13-item, validated scale, assesses the impact of a disease and its therapy on fatigue.
Study J is described in detail in the above examples. The Health Assessment Questionnaire Disability Index (HAQ DI) and Functional Assessment of Chronic Illness Therapy-Fatigue (FACIT-F) were assessed at baseline, and following 12, 26, 42, 52, 76, and 104 weeks of therapy. Changes in scores were computed by subtracting the baseline from post-treatment score for each patient; mean changes were reported for each treatment group. The HAQ DI is assessed on a scale of 0-3, with higher numbers indicating greater disability. The minimum clinically important difference (MCID) is defined as changes ≧0.22 (Goldsmith C H, et al. J Rheumatol 1993; 20-561-5). The FACIT-F is assessed on a scale of 0-52, with higher scores indicating less fatigue. Changes of ≧4 are considered clinically meaningful (Cella D, et al. J Pain Symptom Manage 2002:24:547-61).

adult patients with RA = experiment: Study 1: HAQ change by CRP category; format: in vivo, human
Protocol: 407 patients with active RA enrolled in the 2 study arms. Of these patients, 299 (73.5%) patients completed the study until Week 52 and were evaluated.
Patients were grouped into three cohorts based on baseline CRP concentrations: low (<1 mg/dL); intermediate (1-4 mg/dL); and high (>4 mg/dL). Analyses were further conducted in two categories of patients according to their change in CRP concentrations at Week 12: those with a ≧20% decrease in CRP from baseline; or those with a <20% decrease in CRP from baseline. The following efficacy and radiographic measures were analyzed at Week 52 in the three baseline CRP categories and in the two Week 12 change in CRP categories: DAS28, ACR 20/50/70, Health assessment questionnaire (HAQ), and Total Sharp score (TSS).

[2] = test system: patients with active rheumatoid arthritis; details: Study A (N=2008), 12 weeks; cited from earlier work
[3] = test system: patients with moderate to severe rheumatoid arthritis; experiment: Study C: medically relevant adverse events; format: in vivo, human
Protocol: The Canadian Adalimumab Clinical Trial (Study C) was an open-label, multi-center, Phase IIIb study conducted in Canada. […] Efficacy and safety were assessed at baseline, 4, 8, and 12 weeks. Efficacy assessments included tender joint count (TJC 0-28), swollen joint count (SJC 0-28), Disease Activity Score 28 (DAS28), Health Assessment Questionnaire (HAQ), and EULAR response. […] The sample size for each outcome variable is based on the data available at the time of the analysis. The data from this preliminary analysis were compared with the Week 12 data from Study A (N=2008).

[4] = test system: patients with long-standing RA; experiment: Study 4: CRP; format: in vivo, human
Source text: Percentage change of mean clinical improvement from baseline us describe in Table 15 below.

[5] = test system: MTX-naïve adult patients with active, early RA (<3 years); details: in vivo
Source text: Study J was a 2-year randomized controlled trial in patients with early RA (disease duration<3 years). Participants in these clinical trials and in other phase Mb studies, were routinely evaluated for safety. Reports of serious adverse events (SAE) were tabulated using MedDRA coding by events per 100-patient-years (E/100PY). SAE rates were compared with respect to disease duration between patients with early (<3 yrs) and long-standing RA.

patients with active RA = experiment: Low-field MRI follow-up of finger joint inflammation (OMERACT-based scores, ESR, DAS28), Study A subset; format: in vivo, human
Protocol: The method included the following. […] Proximal interphalangeal and metacarpophalangeal joints of the dominant hands of these patients were examined by 0.2-Tesla MRI (C-Scan, Esaote, Italy). Clinical examinations and MRI were performed at baseline and during therapy for a mean period of 86 days (range: 42-126 days). The used sequences were coronal T1-weighted spin-echo; coronal short-tau inversion-recovery gradient-echo; and T1-weighted, 3D gradient-echo before and after administration of Gd-DTPA (0.2 mmol/kg body weight). Erythrocyte sedimentation rate (ESR) and Disease Activity Score 28 (DAS28) were measured at all time points. MRI was evaluated according to an Outcome Measures in Arthritis Clinical Trials or OMERACT-based semiquantitative scoring system. Scores were calculated for erosions (0-5 scale, maximum of 40), synovitis (0-3 scale, maximum of 24), and tenosynovitis (0-3 scale, maximum of 12).

[6] = test system: patients with long-standing RA; experiment: Study I: serious adverse events and withdrawals; details: 262 patients
[7] = test system: MTX-naïve adult patients with active, early RA (<3 years); details: human, in vivo
[8] = test system: RA patients treated with adalimumab in clinical trials in North America and Europe
Protocol: The rate of TB was calculated for the period before screening was initiated (primarily Phase I trials) and the period after screening was implemented. The screening program consisted of a clinical interview, a tuberculin skin test, and, in most patients, a chest X-ray (CXR). The definition of PPD-positive depended on local country-specific guidelines. For those people who were PPD-positive, or for whom the investigator felt the risk of TB reactivation was high, INH was given for prophylaxis.
The methodology differed among protocols. For instance, in Europe and Australia, it was initially used CXR only, and in later studies, CXR and purified protein derivative skin test (PPD) were both used. By contrast, in US and Canada, CXR and PPD were both used.

[9] = US/Canada and Europe RA trials through December 2004

CN(Cc1cnc2nc(N)nc(N)c2n1)c1ccc(C(=O)N[C@@H](CCC(=O)O)C(=O)O)cc1 [mtx alone, methotrexate]
FACIT-F mean score ([1]; Baseline): 29.0
FACIT-F mean change from baseline ([1]; ΔWeek 12): 7.8
FACIT-F mean change from baseline ([1]; ΔWeek 26): 9.5
FACIT-F mean change from baseline ([1]; ΔWeek 42): 9.3
FACIT-F mean change from baseline ([1]; ΔWeek 52): 9.0
FACIT-F mean change from baseline ([1]; ΔWeek 76): 8.5
FACIT-F mean change from baseline ([1]; ΔWeek 104): 8.8
mean change in HAQ (adult patients with RA; week 52, <20% decrease in CRP at week 12): −0.29
HAQ mean change (adult patients with RA; week 52, baseline CRP 1-4 mg/dL): −0.4
HAQ mean change (adult patients with RA; week 52, baseline CRP <1 mg/dL): −0.4
HAQ mean change (adult patients with RA; week 52, baseline CRP >4 mg/dL): −0.3
mean change in HAQ (adult patients with RA; week 52, ≧20% decrease in CRP at week 12): −0.48

adalimumab: human anti-TNF mAb (HUMIRA, Abbott Laboratories), described in U.S. Pat. No. 6,090,382 as D2E7
SJC (0-28), change from baseline, median [2]: −7
TJC (0-28), change from baseline, median [2]: −10
Infections: Influenza, number ([3]; Study C (n=879)): Influenza (1)
Infections: Pneumonia, number ([3]; Study C (n=879)): Pneumonia (3)
Infections: Post-operative infections, number ([3]; Study C (n=879)): infections (3)
Infections: Pyelonephritis, number ([3]; Study C (n=879)): Pyelonephritis (1)
Infections: Sinusitis, number ([3]; Study C (n=879)): Sinusitis (1)
Medically relevant adverse events: Congestive heart failure, % ([3]; Study C (n=879)): 0.1%
Medically relevant adverse events: Congestive heart failure, number ([3]; Study C (n=879)): 1
Infections: Atypical infection (nodules), number ([3]; in vivo): (nodules) (1)
Infections: Infected prosthesis, number ([3]; in vivo): Infected prosthesis (1)
Medically relevant adverse events: Infections, % ([3]; in vivo): 1.3%
Medically relevant adverse events: Infections, number ([3]; in vivo): 11
Medically relevant adverse events: Malignancies, % ([3]; in vivo): 0.2%
Medically relevant adverse events: Malignancies, number ([3]; in vivo): 2
CRP, % change of mean clinical improvement from baseline ([4]; 6 months): 14%
CRP, % change of mean clinical improvement from baseline ([4]; 12 months): 33%
CRP, % change of mean clinical improvement from baseline ([4]; 24 months): 29%
CRP, % change of mean clinical improvement from baseline ([4]; 36 months): 28%
CRP, % change of mean clinical improvement from baseline ([4]; 48 months): 37%
All infectious AE [5]: 110 Events/100-PY
Demyelination [5]: 0.0 Events/100-PY
Lymphoma [5]: 0.0 Events/100-PY
Malignancies [5]: 0.9 Events/100-PY
Pancytopenia [5]: 0.0 Events/100-PY
Serious AE [5]: 21.1 Events/100-PY
Serious Infectious AE [5]: 0.7 Events/100-PY
mean ESR (patients with active RA; after therapy (33.0 before)): 16.2 mm/hr
mean DAS28 (patients with active RA; after therapy (baseline 6.1)): 3.8
median tenosynovitis MRI score (max 12) (patients with active RA; during therapy (baseline 3)): 1.5
median erosion MRI score (max 40) (patients with active RA; during therapy (baseline 6.5), not significant): 4.5
median synovitis MRI score (max 24) (patients with active RA; during therapy, mean 86 days (baseline 11), n=16): 9
withdrawals for lack of efficacy [6]: 8%
withdrawn, reason AE [7]: 11%
TB cases: Culture positive [8, 9]: 62%
TB cases: Extrapulmonary [8, 9]: 65%
TB: Total Cases [8, 9]: 34
TB cases: Median months from treatment to diagnosis (range) ([8]; US/Canada and Europe RA trials through December 2004, range 1-54): 7.2 months (1-54)
cases of TB ([8]; after screening): 27 cases
rate of TB ([8]; after screening, 14,010 pt-yrs): 0.0019 /pt-yr
rate of TB ([8]; after screening, Europe): 0.0027
rate of TB ([8]; after screening, North America): 0.0008
cases of TB ([8]; before screening): 7 cases
rate of TB ([8]; before screening, 534 pt-yrs): 0.013 /pt-yrs
reduction in the rate of developing TB with screening ([8]; human, in vivo): 85%
TB cases: Outcome Resolved ([8]; of 34 cases, one patient died of unrelated causes): 32**
median time to the development of TB ([8]; range 14-1636): 167 days
